Measurements as given in the supplement of paper PMC10065799, “High-throughput profiling of sequence recognition by tyrosine kinases and SH2 domains using bacterial peptide display” (eLife, 2023).

Legend:
AncSZ = experiment: phosphorylation enrichment, bacterial display (enrichment ratio); higher = better substrate or ligand; peptides without Tyr show the background
EPHB1 = EPHB1 (UniProt P54762); experiment: as above
EPHB2 = EPHB2 (UniProt P29323); experiment: as above
FGFR1 = FGFR1 (UniProt P11362); experiment: as above
FGFR3 = FGFR3 (UniProt P22607); experiment: as above
Fer (mouse) = experiment: as above
Fes = Fes (UniProt P07332); experiment: as above
Fyn = Fyn (UniProt P06241); experiment: as above
Hck = Hck (UniProt P08631); experiment: as above
Jak2 = Jak2 (UniProt O60674); experiment: as above
MERTK = MERTK (UniProt Q12866); experiment: as above
c-Abl (mouse) = experiment: as above
c-Src = experiment: as above
Grb2 SH2 = Grb2 SH2 (UniProt P62993); experiment: SH2 binding enrichment of the phosphorylated peptide, bacterial display (enrichment ratio); higher = better substrate or ligand; peptides without Tyr show the background
SHP2-C SH2 = experiment: as above
c-Src SH2 = experiment: as above
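For SH2 binding enrichment of the phosphorylated peptide, bacterial display in this document: peptide library displayed on the E. coli surface as eCPX fusions, selected cells deep-sequenced, score is each peptide's frequency after selection divided by its frequency in the input.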
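For phosphorylation enrichment, bacterial display in this document: 11-residue human phosphosite peptides and single-mutation variants displayed on the E. coli surface, counted by deep sequencing, each peptide's frequency after selection divided by its frequency in the unselected input library; frequency after pTyr selection over input frequency; kinase dosed for 20-30% of maximal phosphorylation in three min.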

Fyn, sequence (P06241 whole entry, looked up): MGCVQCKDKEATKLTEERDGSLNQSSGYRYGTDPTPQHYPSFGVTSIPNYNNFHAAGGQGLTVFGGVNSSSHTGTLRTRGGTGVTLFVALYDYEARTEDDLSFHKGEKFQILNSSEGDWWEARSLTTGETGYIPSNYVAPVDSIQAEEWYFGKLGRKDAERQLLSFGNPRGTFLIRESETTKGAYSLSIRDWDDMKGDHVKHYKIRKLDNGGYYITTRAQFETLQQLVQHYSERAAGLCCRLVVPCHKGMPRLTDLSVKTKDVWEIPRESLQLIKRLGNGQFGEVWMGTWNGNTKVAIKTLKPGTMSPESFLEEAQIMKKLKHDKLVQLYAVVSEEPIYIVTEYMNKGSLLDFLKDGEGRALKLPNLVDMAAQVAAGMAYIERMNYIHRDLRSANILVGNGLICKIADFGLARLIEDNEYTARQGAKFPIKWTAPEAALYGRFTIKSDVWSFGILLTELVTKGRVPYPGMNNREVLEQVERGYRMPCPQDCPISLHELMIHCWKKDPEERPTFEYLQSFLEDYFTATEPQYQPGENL
EPHB1, sequence (P54762 whole entry, looked up): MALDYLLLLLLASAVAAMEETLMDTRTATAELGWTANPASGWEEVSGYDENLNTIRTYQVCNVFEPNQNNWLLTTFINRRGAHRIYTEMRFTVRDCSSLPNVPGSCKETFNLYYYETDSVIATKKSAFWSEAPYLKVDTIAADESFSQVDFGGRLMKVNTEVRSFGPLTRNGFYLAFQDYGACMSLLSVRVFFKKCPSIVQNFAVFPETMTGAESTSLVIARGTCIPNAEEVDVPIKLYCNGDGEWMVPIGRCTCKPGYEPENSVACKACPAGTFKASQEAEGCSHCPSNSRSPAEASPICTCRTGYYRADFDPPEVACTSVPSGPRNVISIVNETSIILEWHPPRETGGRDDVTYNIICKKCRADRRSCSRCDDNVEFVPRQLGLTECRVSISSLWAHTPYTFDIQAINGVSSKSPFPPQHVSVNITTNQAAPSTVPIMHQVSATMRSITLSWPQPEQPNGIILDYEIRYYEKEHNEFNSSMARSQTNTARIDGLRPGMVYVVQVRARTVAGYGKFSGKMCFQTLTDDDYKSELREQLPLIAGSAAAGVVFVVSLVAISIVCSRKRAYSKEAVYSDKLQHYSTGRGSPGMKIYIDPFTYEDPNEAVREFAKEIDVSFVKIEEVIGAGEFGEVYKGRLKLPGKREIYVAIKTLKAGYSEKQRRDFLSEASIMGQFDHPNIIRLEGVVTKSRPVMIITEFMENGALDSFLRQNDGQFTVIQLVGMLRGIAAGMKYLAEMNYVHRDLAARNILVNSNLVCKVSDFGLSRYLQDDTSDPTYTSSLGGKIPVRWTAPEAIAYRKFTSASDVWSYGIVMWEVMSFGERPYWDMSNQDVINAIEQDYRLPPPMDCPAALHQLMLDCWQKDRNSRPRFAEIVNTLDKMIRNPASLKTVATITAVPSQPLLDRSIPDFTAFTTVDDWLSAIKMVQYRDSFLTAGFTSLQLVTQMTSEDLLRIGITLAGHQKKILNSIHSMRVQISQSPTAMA
EPHB2, sequence (P29323 whole entry, looked up): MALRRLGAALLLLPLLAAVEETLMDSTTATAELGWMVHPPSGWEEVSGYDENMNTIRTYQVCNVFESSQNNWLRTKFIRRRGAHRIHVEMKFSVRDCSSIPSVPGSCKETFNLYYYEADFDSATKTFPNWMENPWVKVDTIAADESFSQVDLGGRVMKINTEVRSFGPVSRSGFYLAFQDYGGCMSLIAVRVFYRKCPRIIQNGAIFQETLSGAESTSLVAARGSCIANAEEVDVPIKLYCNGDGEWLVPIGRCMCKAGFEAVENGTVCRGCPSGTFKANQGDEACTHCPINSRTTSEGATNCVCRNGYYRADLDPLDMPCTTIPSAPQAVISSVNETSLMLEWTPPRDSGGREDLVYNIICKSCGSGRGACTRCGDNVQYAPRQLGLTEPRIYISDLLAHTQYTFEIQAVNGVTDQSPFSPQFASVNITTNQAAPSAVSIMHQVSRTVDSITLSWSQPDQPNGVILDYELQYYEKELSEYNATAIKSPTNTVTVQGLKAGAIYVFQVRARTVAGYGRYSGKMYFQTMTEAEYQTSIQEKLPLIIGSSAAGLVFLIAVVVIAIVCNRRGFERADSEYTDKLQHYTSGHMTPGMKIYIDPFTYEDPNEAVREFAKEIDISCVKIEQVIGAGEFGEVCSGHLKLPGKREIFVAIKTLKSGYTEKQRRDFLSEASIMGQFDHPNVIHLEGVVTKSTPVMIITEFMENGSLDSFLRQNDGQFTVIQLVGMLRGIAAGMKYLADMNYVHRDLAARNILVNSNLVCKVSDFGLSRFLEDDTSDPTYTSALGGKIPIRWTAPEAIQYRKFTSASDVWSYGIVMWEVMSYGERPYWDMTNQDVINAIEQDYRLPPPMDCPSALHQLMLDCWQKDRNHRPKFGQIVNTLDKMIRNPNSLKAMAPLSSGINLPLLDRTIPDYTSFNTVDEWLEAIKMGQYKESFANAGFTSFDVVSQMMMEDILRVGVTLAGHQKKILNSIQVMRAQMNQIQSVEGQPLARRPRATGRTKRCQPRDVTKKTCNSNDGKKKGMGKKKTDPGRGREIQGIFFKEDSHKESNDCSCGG
Hck, sequence (P08631 whole entry, looked up): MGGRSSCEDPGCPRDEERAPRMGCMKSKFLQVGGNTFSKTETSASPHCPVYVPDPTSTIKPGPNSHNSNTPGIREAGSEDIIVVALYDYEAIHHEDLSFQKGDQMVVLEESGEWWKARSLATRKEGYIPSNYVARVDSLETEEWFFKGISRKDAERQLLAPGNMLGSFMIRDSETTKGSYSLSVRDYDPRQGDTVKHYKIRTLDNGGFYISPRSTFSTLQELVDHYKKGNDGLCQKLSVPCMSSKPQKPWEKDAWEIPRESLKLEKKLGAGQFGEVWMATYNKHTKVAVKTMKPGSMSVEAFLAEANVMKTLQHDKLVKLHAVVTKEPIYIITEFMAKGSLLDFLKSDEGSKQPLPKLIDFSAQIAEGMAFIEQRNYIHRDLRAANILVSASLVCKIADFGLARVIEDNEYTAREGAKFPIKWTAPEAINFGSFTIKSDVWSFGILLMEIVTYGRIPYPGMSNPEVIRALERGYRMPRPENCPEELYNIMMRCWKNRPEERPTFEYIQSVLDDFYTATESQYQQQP
Grb2 SH2, sequence (P62993 whole entry, looked up): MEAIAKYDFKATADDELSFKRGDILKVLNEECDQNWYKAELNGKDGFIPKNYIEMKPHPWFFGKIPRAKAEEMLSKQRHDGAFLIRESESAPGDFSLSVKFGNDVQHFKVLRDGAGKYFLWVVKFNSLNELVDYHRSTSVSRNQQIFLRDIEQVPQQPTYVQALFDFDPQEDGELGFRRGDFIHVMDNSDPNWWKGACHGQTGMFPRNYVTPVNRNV
FGFR1, sequence (P11362 whole entry, looked up): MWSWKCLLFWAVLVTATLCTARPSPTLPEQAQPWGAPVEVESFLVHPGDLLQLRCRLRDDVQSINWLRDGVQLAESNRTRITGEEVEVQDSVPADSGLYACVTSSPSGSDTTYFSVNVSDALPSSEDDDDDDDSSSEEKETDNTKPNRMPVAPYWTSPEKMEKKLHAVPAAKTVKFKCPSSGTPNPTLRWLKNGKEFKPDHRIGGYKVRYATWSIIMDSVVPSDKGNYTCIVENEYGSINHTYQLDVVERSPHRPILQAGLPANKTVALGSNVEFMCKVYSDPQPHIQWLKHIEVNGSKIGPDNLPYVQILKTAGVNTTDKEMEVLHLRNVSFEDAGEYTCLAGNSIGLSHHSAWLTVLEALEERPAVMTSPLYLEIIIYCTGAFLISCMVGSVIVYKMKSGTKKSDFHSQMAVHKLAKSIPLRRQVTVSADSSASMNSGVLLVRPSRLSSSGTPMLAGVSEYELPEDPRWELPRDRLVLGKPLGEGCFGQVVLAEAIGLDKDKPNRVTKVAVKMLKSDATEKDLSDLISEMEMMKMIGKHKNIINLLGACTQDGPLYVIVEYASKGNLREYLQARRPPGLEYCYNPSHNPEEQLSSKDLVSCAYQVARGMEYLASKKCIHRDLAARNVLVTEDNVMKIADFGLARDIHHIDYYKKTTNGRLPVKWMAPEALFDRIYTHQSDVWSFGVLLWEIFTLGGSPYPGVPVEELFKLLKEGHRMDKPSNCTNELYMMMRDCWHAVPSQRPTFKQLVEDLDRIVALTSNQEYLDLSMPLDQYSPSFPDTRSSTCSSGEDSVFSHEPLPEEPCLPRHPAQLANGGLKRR
Fes, sequence (P07332 whole entry, looked up): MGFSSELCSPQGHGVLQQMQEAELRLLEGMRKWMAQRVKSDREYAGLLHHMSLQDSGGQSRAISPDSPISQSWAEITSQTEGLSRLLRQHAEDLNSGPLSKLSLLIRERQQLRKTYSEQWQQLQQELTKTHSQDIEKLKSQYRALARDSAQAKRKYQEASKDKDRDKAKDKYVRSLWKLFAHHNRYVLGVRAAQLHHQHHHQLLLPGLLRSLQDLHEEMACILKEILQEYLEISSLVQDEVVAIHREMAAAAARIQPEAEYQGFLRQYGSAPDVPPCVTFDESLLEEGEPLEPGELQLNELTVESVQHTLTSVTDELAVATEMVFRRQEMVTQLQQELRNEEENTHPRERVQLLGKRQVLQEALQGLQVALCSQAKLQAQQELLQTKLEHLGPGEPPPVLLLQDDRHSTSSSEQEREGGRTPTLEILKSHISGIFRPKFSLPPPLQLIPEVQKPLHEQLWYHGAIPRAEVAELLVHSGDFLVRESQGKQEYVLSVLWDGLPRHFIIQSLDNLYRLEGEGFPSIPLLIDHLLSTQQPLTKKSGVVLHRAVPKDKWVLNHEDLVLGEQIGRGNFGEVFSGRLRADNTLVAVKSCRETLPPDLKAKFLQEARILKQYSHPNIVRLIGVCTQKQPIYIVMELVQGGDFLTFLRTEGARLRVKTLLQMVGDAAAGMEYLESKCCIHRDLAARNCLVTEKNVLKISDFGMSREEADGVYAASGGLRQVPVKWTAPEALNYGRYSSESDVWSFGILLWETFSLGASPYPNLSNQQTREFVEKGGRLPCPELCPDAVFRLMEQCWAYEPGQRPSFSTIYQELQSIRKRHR

Sequence	phosphorylation enrichment (AncSZ)	phosphorylation enrichment (EPHB1)	phosphorylation enrichment (EPHB2)	phosphorylation enrichment (FGFR1)	phosphorylation enrichment (FGFR3)	phosphorylation enrichment (Fer (mouse))	phosphorylation enrichment (Fes)	phosphorylation enrichment (Fyn)	phosphorylation enrichment (Hck)	phosphorylation enrichment (Jak2)	phosphorylation enrichment (MERTK)	phosphorylation enrichment (c-Abl (mouse))	phosphorylation enrichment (c-Src)	SH2 binding enrichment (Grb2 SH2)	SH2 binding enrichment (SHP2-C SH2)	SH2 binding enrichment (c-Src SH2)
KMGNIYRTEYG [MRPL3_Y265]	0.621	0.488	0.373	0.413	0.526	0.334	0.701	0.475	0.477	0.577	0.539	0.496	0.536	0.884	0.73	0.529
LIFTNYEVGKD [GSTP1_Y112_A114V_YF]	2.14	1.58	1.78	1.17	1.46	1.17	2.21	1.18	1.1	1.94	0.983	1.3	0.825	0.887	0.784	0.739
SDVDLYQVRIA [PSMD9_Y70_T74I]	0.92	0.594	0.497	0.598	0.583	0.756	0.892	1.86	4.07	1.04	0.463	0.579	2.13	0.789	0.793	0.431
KDFTIHNPNLL [VANGL1_Y290_Y290H]	0.698	0.516	0.366	0.424	0.561	0.353	0.829	0.369	0.392	0.654	0.453	0.574	0.439	0.812	0.553	0.444
SEKISYVFMKR [SSX7_Y48_L43S_YF]	1.25	0.599	0.597	0.52	0.75	0.458	1.32	0.436	0.46	1.05	0.378	0.822	0.412	0.681	0.906	0.386
FGSSSYGGAGG [RPA2_Y14_YF]	0.415	0.431	0.401	0.437	0.436	0.334	0.559	0.45	0.374	0.544	0.329	0.677	0.43	0.743	0.58	0.394
SDGHEYIFVDP [PDGFRB_Y579_YF]	2.08	0.478	0.486	1.75	1.37	0.447	0.811	0.509	0.43	1	0.425	0.573	0.512	0.769	0.544	0.769
IFLGAYDRFLP [SLC22A5_Y486_V481I_YF]	1.06	0.84	1.41	0.427	0.608	1.1	1	2.45	3.39	0.896	3.84	0.932	3.69	0.941	1.22	0.996
HRFAAYFQQGD [GPI_Y351]	1.17	0.88	0.759	0.962	0.897	0.496	1.79	0.633	0.501	1.59	0.643	0.979	0.609	0.97	0.77	0.662
RSHLPYDVTPE [IQGAP3_Y1098]	1.82	0.572	0.742	0.752	0.747	0.474	1.45	0.848	0.695	2.28	1	1.39	1.27	0.827	0.974	0.588
LKYAIYFEVRE [LAMA2_Y1258_A1261V]	2.08	1.67	1.23	1.09	1.39	0.929	2.57	1.17	0.827	2.44	0.954	2.14	1.45	0.399	0.573	0.544
TFGNLYGSRKQ [YIPF7_Y59_A54T_YF]	0.629	0.366	0.398	0.514	0.421	0.457	0.788	0.911	3.44	0.507	0.641	0.585	1.81	0.851	0.512	0.348
AQPHTYEEPGR [EPHA8_Y616_E612Q]	0.74	0.519	0.577	0.459	0.46	0.458	0.729	0.481	0.46	0.83	0.394	0.465	0.452	1.08	0.794	14.5
ARSHIYTFASC [MEFV_Y741]	0.932	0.488	0.533	0.491	0.653	0.563	1	1.41	0.671	0.866	0.808	0.849	1.3	0.834	0.763	1.66
RRKRAYVEIEF [MAK16_Y282_Q277R_YF]	0.665	0.582	0.658	0.563	0.871	0.551	0.828	0.58	0.505	0.593	0.759	0.58	0.542	0.504	0.459	0.434
DLDFTYIFPNI [PTEN_Y27_L25F_YF]	3.5	0.996	0.618	2.87	2.27	0.627	1.33	4.4	1.16	1.83	1	0.8	2.15	0.758	0.435	0.47
ASKEPYFVHCI [MYO1D_Y585_R588H_YF]	0.846	1.05	0.481	0.583	0.882	0.56	0.881	0.503	0.475	0.675	0.427	0.611	0.523	0.982	0.886	0.715

Sequence	phosphorylation enrichment (AncSZ)	phosphorylation enrichment (EPHB1)	phosphorylation enrichment (EPHB2)	phosphorylation enrichment (FGFR1)	phosphorylation enrichment (FGFR3)	phosphorylation enrichment (Fer (mouse))	phosphorylation enrichment (Fes)	phosphorylation enrichment (Fyn)	phosphorylation enrichment (Hck)	phosphorylation enrichment (Jak2)	phosphorylation enrichment (MERTK)	phosphorylation enrichment (c-Abl (mouse))	phosphorylation enrichment (c-Src)	SH2 binding enrichment (Grb2 SH2)	SH2 binding enrichment (SHP2-C SH2)	SH2 binding enrichment (c-Src SH2)
LENSTYQFIHV [CRB1_Y760_R764H_YF]	1.77	9.73	2.92	7.91	4.82	24.8	2.22	3.24	8.87	1.19	10	1.56	4.21	0.94	0.652	0.456
NKKHHYRELPV [ERN2_Y860]	1.04	0.855	0.773	0.826	2.45	1.22	1.97	0.669	1.01	2.67	0.795	2.31	0.996	1.62	1.48	1.41
ADAHHYLCKEV [JAK2_Y382]	0.678	0.851	0.752	0.588	0.554	0.488	0.879	0.485	0.549	0.837	0.429	0.644	0.543	0.849	0.626	0.518
FKDVTYLKEEK [UBE3A_Y127_T129K]	0.891	0.466	0.447	0.481	0.728	0.49	1.28	0.514	0.442	0.986	0.38	0.809	0.523	0.823	0.465	0.642
PKGWNYELPAT [PROM1_Y34_A31G]	1	0.597	0.454	0.518	0.592	0.433	0.867	0.531	0.516	0.698	0.45	0.696	0.383	1.14	0.613	1.25
MSSHHYDYKKY [ZNF445_Y428]	0.503	0.394	0.375	0.338	0.46	0.408	0.513	0.415	0.421	0.441	0.339	0.438	0.383	0.799	0.692	0.64
KLLLKYSFHDV [RNF213_Y4141]	1.27	0.56	0.598	0.439	0.808	0.537	1.31	0.418	0.506	1.57	0.4	0.878	0.436	1.15	1.04	0.851
YGMQLYQNYMH [GRB14_Y347]	1.11	9.11	12.4	0.888	0.909	8.99	1.02	4.92	4.84	0.727	3.75	1.2	3.97	6.36	1.22	1.6
LADKPYTFEDF [FXN_Y118_YF]	2.9	1.43	1.86	2.21	2	1.96	2.52	7.15	1.26	0.988	1.39	0.738	3.9	1.1	0.954	0.708
LIGTPYWMAPE [PAK5_Y608_V604I]	1.74	1.4	1	4.64	3.65	0.917	1.51	0.825	1	1.17	1.32	0.987	2.6	1.23	3.03	0.882
FFSSEYHFVGG [CTSC_Y345_YF]	2.52	3.21	3.73	14.2	10.7	0.526	0.91	2	2.44	1.95	3.31	1.71	2.94	0.99	1.68	0.756
KEINDYVEKGT [SERPINA1_Y184_Q180E]	1.21	0.513	0.56	0.558	0.632	0.492	0.954	0.514	0.515	0.75	0.439	0.621	0.517	0.981	0.568	0.461
TQPSPYAVYRF [RPGRIP1_Y823]	0.912	1.22	1.84	0.794	0.795	9	0.834	11.5	7.95	0.898	8.69	22.2	10.1	0.847	1.04	1.7
CRAVKYLQMVR [AVPR2_Y117_G122R]	0.882	0.499	0.467	0.436	0.527	0.455	0.878	0.459	0.417	1.2	0.331	0.733	0.401	1.01	1.25	0.62
SHEELYKWFTS [DYNC1H1_Y3051]	1.28	0.608	0.577	5.57	3.6	3.4	1.21	0.918	1.25	1.05	4.28	1.33	1.55	0.887	0.837	0.562
FQKNIYSEEPR [LMNA_Y211_L215P]	0.773	0.438	0.443	0.478	0.582	0.454	0.871	1.02	0.763	0.717	1.73	0.477	1.54	0.809	0.462	0.578
